Holding throughout (experiment): EMSA
Settings in all cases: 25 mM Hepes pH 8.0, 40 mM KCl, 5 mM MgCl2, 1 mM DTT, 1 mM EDTA, 8% glycerol; 50 ng protein, 20 fmol probe; 30 min at 28 C; native PAGE

Data set [1] concerns the target 6xHis-WRKY18 (Arabidopsis thaliana (Col-0?)) (UniProt Q9C5T4).
Data set [2] has as its target T1, 6xHis-WRKY40 (Arabidopsis thaliana (Col-0?)) (UniProt Q9SAH7).
T1 sequence: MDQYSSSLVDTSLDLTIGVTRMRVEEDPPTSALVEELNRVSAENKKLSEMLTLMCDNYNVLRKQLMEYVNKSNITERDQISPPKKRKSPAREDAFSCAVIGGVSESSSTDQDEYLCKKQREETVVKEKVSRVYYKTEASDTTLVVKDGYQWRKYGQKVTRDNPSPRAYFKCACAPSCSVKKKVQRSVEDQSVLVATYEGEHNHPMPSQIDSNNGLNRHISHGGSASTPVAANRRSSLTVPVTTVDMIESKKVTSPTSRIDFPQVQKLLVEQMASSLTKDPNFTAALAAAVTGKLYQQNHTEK

Data set [3] concerns the target 6xHis-WRKY60 (Arabidopsis thaliana (Col-0?)) (UniProt Q9SK33).

Sequence of 6xHis-WRKY60 (Arabidopsis thaliana (Col-0?)) (Q9SK33 whole entry): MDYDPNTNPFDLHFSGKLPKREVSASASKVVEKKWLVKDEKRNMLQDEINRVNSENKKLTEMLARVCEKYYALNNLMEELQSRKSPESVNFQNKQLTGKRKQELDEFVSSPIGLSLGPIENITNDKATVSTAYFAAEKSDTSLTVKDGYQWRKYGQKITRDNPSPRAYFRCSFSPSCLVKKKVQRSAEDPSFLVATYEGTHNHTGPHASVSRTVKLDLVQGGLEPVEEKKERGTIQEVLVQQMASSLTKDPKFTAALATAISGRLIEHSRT
Sequence of 6xHis-WRKY18 (Arabidopsis thaliana (Col-0?)) (Q9C5T4 whole entry): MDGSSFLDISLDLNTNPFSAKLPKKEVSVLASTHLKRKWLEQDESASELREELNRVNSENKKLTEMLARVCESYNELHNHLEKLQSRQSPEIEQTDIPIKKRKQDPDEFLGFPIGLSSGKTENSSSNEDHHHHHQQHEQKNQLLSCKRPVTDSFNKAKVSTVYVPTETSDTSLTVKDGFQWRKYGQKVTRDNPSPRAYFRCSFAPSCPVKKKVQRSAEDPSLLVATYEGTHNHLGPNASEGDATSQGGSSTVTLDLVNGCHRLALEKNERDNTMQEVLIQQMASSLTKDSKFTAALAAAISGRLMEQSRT

Regarding “AGTTGTAAAGTTCAGAAGGAAAAGTACTAAAATATGAAGTCAACGACAATCTTTAGAGTCAACCTTCCACTAAGAGTGTTGATTGGTTTGATGAAGCAGTGAAGGCTAGAAACTGAAGCAACTAGGGTTTGGGAAGTTACTGTTTTAACTTGTAACTGTTCGTTTGTTACTTCTTTGGTAAGGAAGTAAAACGGTGTTGTCTTATTGACCCAAAGTCTCCGCGGCTTGCTGAATAATCACAAACCTATTAAATATCC (double strand) [ProCRK5-2]”, the results for the binding result in data set [1], in data set [2] and in data set [3] were “binds”, “binds” and “no binding”, respectively.

Values taken from paper PMC5014153.
